Measurements reported in US20150359864A1, “PHARMACEUTICAL COMPOSITION CONTAINING PEPTIDES” (ONCOTHERAPY SCIENCE, INC., priority 2012, published 2015).

How the values were obtained:
[1] = Preparation of single peptide injection preparations using sodium carbonate solution (Example 1); assay type: physicochemical; details: for Whether injection preparation could be prepared (in words): 5 mg to 20 mg peptide in 1 ml injection solvent containing sodium carbonate; for Peptide concentration at which injection preparation could be prepared, Example 1 (Na2CO3): 41 mg sodium carbonate decahydrate in 1 ml injection solvent, class symbol; for pH of injection preparation, Example 1 (Na2CO3): injection solvent containing sodium carbonate
Description: 41 mg of sodium carbonate decahydrate (Na2CO3.10H2O) was dissolved in 1 ml of an injection solvent to obtain an injection solvent containing sodium carbonate. In order to prepare formulations of the each peptide that was not dissolved in an injection solvent in Comparative Example 1, Peptides 1, 2, 4, 7, and 10 were separately added to 1 ml of injection solvents containing sodium carbonate.
In the case of Peptide 1, it was confirmed that the injection preparation could be obtained with the addition of 9 mg of peptide at the maximum. All the obtained injection preparations had pH levels within adequate range for injection (Table 2).

[2] = Preparation of single peptide injection preparations using arginine solution (Example 2); assay type: physicochemical; details: for Whether injection preparation could be prepared (in words): 5 mg to 20 mg peptide in 1 ml injection solvent containing arginine; for Peptide concentration at which injection preparation could be prepared, Example 2 (Arg): 40 mg L-arginine in 1 ml injection solvent, class symbol; for pH of injection preparation, Example 2 (Arg): injection solvent containing arginine
Description: 40 mg of L-arginine was dissolved in 1 ml of an injection solvent to obtain an injection solvent containing arginine. In order to prepare formulations of each peptide that was not dissolved in an injection solvent in Comparative Example 1, Peptides 1, 2, 4, 7, and 10 were separately added to 1 ml of injection solvents containing arginine.
In the case of Peptide 1, it was confirmed that the injection preparation could be obtained with the addition of 6 mg of peptide at the maximum. All the obtained injection preparations had pH levels within adequate range for injection (Table 2).

[3] = Preparation of injection preparations using sodium carbonate/arginine solution (Example 3); assay type: physicochemical; details: for Peptide concentration at which injection preparation could be prepared, Example 3 (Na2CO3/Arg): 41 mg sodium carbonate decahydrate and 40 mg L-arginine in 1 ml injection solvent; for pH of injection preparation, Example 3 (Na2CO3/Arg): injection solvent containing sodium carbonate and arginine
Description: 41 mg of sodium carbonate decahydrate and 40 mg of L-arginine were dissolved in 1 ml of an injection solvent to obtain an injection solvent containing sodium carbonate and arginine.
In the case of Peptide 3, it was confirmed that the injection preparation could be obtained with the addition of 15 mg of peptide at the maximum. All the obtained injection preparations had pH levels within adequate range for injection (Table 2).

[4] = Combination peptide injection preparation using arginine solution (Example 4); assay type: physicochemical; design: key to Dissolution on successive addition, Example 4-1 (Arg) (1 mg each) / Dissolution on successive addition, Example 4-2 (Arg) (2 mg each): ◯: Dissolved; X: White Turbid; details: for Dissolution on successive addition, Example 4-1 (Arg) (1 mg each): 1 mg each peptide added one after another to 1 ml arginine solvent
Description: In order to prepare an injection preparation containing combination of the peptides shown in Table 1, the 10 types of peptides shown in Table 1 were added in an amount of 1 mg each to 1 ml of the injection solvent containing arginine as used in Example 2. The entire amount of one peptide was dissolved upon addition thereof to obtain a colorless and clear solution, and another peptide was then added thereto.
Subsequently, preparation of another injection preparation containing combination of the peptides was attempted in the same manner as described above, except that the amount of each peptide added was changed to 2 mg. […] Thus, no other peptides were added thereafter.

[5] = Combination peptide injection preparation using sodium carbonate solution (Example 5); assay type: physicochemical; design: key to Dissolution on successive addition, Example 5 (Na2CO3) (2 mg each) / Dissolution of further 2 mg of Peptide 2, Example 5 (Na2CO3): ◯: Dissolved; X: White Turbid; details: 2 mg each peptide added one after another to 1 ml sodium carbonate solvent
Description: In order to prepare an injection preparation containing combination of the peptides shown in Table 1, the 10 types of peptides shown in Table 1 were added in an amount of 2 mg each to 1 ml of the injection solvent containing sodium carbonate as used in Example 1. The addition of each peptide was conducted in the same manner as in Example 4.

[6] = Combination peptide injection preparation using sodium carbonate/arginine solution (Example 6); assay type: physicochemical; design: key to Dissolution on successive addition, Example 6 (Na2CO3/Arg) (2 mg each) / Dissolution of further 2 mg of Peptide 2, Example 6 (Na2CO3/Arg): ◯: Dissolved; X: White Turbid; details: 2 mg each peptide added one after another to 1 ml sodium carbonate/arginine solvent
Description: In order to prepare an injection preparation containing combination of the peptides shown in Table 1, the 10 types of peptides shown in Table 1 were added in an amount of 2 mg each to 1 ml of the injection solvent containing sodium carbonate and arginine as used in Example 3. The addition of each peptide was conducted in the same manner as in Example 4.

[7] = Preparation of single peptide injection preparations using injection solvent (Comparative Example 1); details: for Whether injection preparation could be prepared (in words): 2 mg to 20 mg peptide in 1 ml injection solvent; for Peptide concentration at which injection preparation could be prepared, Comparative Example 1 (injection solvent): injection solvent (water), room temperature
Description: Pharmaceutical water defined by the Japanese Pharmacopoeia was used as an injection solvent.
In order to prepare formulations containing one of the peptides shown in Table 1, each of the peptides shown in Table 1 were added to 1 ml of an injection solvent. The resultants were agitated at room temperature so as to dissolve the entire amounts of the peptides added, and thereby colorless and clear solutions of each peptide were obtained. Thereafter, the peptide solutions were sterilized via filtration (with the use of a 0.22-μm filter) to obtain injection preparations.
The amounts of peptides added varied within the range of 2 mg to 20 mg, and injection preparations were prepared at each concentration. […] For these peptides, peptide concentrations that enable preparation of injection preparations were investigated.

[8] = Stability of lyophilized formulation, peptide content in the vial by HPLC (Example 7); assay type: physicochemical; details: 25 degrees C., humidity 60%, relative to comparative solution peak area = 100%
Description: 107.7 g of L-arginine and 110.4 g of sodium carbonate hydrate were dissolved in 5,500 ml of an injection solvent. Peptide 1, Peptide 2, Peptide 3, and Peptide 4 were dissolved therein in amounts of 6.2 g, 7.5 g, 8.7 g, and 8.0 g, respectively. Thereafter, the total amount of the solution was adjusted to 7,000 ml with the addition of an injection solvent, and a combination peptide solution was obtained. […] Following lyophilization, the vial was fully stoppered and the aluminum cap seaming was conducted. Thus, a lyophilized formulation was produced.
Further, the results shown above were subjected to regression analysis, so as to predict stability 24 months later.

Row | Sequence | Peptide concentration at which injection preparation could be prepared, Example 3 (Na2CO3/Arg) ([3]; class symbol) | pH of injection preparation, Example 3 (Na2CO3/Arg) [3] | Dissolution on successive addition, Example 4-1 (Arg) (1 mg each) [4] | Dissolution on successive addition, Example 5 (Na2CO3) (2 mg each) [5] | Dissolution on successive addition, Example 6 (Na2CO3/Arg) (2 mg each) [6] | Whether injection preparation could be prepared (in words) [7] | Peptide concentration at which injection preparation could be prepared, Comparative Example 1 (injection solvent) ([7]; class symbol) | other results
1 | DYLNEWGSRF (T cell epitope) [Peptide 10] | ⊚ (20 mg/ml or more) | 10.14 | ◯ | ◯ | ◯ | not possible to prepare the injection preparations regardless of the amounts of peptides added | X (0.08 mg/ml or less) | Whether injection preparation could be prepared (in words) [1]: possible to prepare the injection preparations regardless of the amounts of peptides added; Peptide concentration at which injection preparation could be prepared, Example 1 (Na2CO3) [1]: ⊚ (20 mg/ml or more); pH of injection preparation, Example 1 (Na2CO3) [1]: 9.35; Whether injection preparation could be prepared (in words) [2]: possible to prepare the injection preparations regardless of the amounts of peptides added; Peptide concentration at which injection preparation could be prepared, Example 2 (Arg) [2]: ⊚ (20 mg/ml or more); pH of injection preparation, Example 2 (Arg) [2]: 9.87
2 | EYCPGGNLP (EYCPGGNLF; T cell epitope) [Peptide 8] | ⊚ (20 mg/ml or more) | 9.80 | ◯ | ◯ | ◯ | possible to prepare the injection preparations regardless of the amounts of peptides added | ⊚ (20 mg/ml or more) | –
3 | KVYLRVRPLL (T cell epitope) [Peptide 3] | – | – | ◯ | ◯ | ◯ | possible to prepare the injection preparations regardless of the amounts of peptides added | ⊚ (20 mg/ml or more) | Peptide concentration at which injection preparation could be prepared, Example 3 (Na2CO3/Arg) ([3]; numeric): 15 mg/mL; Maximum amount of peptide added that gave an injection preparation ([3]; in 1 ml injection solvent containing sodium carbonate and arginine): 15 mg; Dissolution on successive addition (in words), Example 4 ([4]; 2 mg each in 1 ml arginine solvent, added after Peptide 1 and Peptide 2): white turbidity; Dissolution on successive addition, Example 4-2 (Arg) (2 mg each) ([4]; 2 mg each peptide added one after another to 1 ml arginine solvent): X; Peptide content in the vial, 0 months [8]: 103.7%; Peptide content in the vial, 1 month [8]: 103.4%; Peptide content in the vial, 3 months [8]: 102.7%; Peptide content in the vial, 6 months [8]: 100.1%
4 | RFVPDGNRI (T cell epitope) [Peptide 6] | ⊚ (20 mg/ml or more) | 10.55 | ◯ | ◯ | ◯ | possible to prepare the injection preparations regardless of the amounts of peptides added | ⊚ (20 mg/ml or more) | –
5 | RYCNLEGPPI (T cell epitope) [Peptide 5] | ⊚ (20 mg/ml or more) | 10.20 | ◯ | ◯ | ◯ | possible to prepare the injection preparations regardless of the amounts of peptides added | ⊚ (20 mg/ml or more) | –
6 | SYRNEIAYL (T cell epitope) [Peptide 7] | ⊚ (20 mg/ml or more) | 9.97 | ◯ | ◯ | ◯ | not possible to prepare the injection preparations regardless of the amounts of peptides added | – | Whether injection preparation could be prepared (in words) [1]: possible to prepare the injection preparations regardless of the amounts of peptides added; Peptide concentration at which injection preparation could be prepared, Example 1 (Na2CO3) [1]: ⊚ (20 mg/ml or more); pH of injection preparation, Example 1 (Na2CO3) [1]: 9.18; Whether injection preparation could be prepared (in words) [2]: possible to prepare the injection preparations regardless of the amounts of peptides added; Peptide concentration at which injection preparation could be prepared, Example 2 (Arg) [2]: ⊚ (20 mg/ml or more); pH of injection preparation, Example 2 (Arg) [2]: 9.68; Peptide concentration at which injection preparation could be prepared, Comparative Example 1 (injection solvent) ([7]; numeric): 0.5 mg/mL
7 | VYGIRLEHF (T cell epitope) [Peptide 9] | ⊚ (20 mg/ml or more) | 9.84 | ◯ | ◯ | ◯ | possible to prepare the injection preparations regardless of the amounts of peptides added | ⊚ (20 mg/ml or more) | –
